Changes are numbered by the printed parent chain.
Experiments:
[1] = Body weight reduction in C57BL/6 mice, daily subcutaneous dosing; format: in vivo; details: for Body weight reduction at 30 nmol/kg (% reduction compared to vehicle)(Day11): male C57BL/6 mice, 30 nmol/kg subcutaneously everyday, Day 11
Procedure: FIGS. 1A-1F show in vivo activities of fusion protein conjugates. […] Body weight was measured daily. […] Compared to Vehicle control: ***, p<0.001. All data are expressed as mean values and standard error (SEM).
10 week old male C57BL/6 mice were injected everyday subcutaneously with 30 nmol/kg exemplary fusion protein conjugates for 10 or 14 days (n=5). Body weight was daily monitored for each individual animal. Day 1 and Day 10 (or Day 14) are first day and last day of molecule dosage. % BW loss=100*(BW on Day n-BW on Day 1)/(BW on Day 1). Data are indicated as mean values and standard error (SEM) or pooled values. Statistical analysis was performed by One-way ANOVA. Body weight reduction on Day 11 in Table 5 is calculated by −1*(% BW loss−% BW loss of vehicle group).

[2] = Pharmacokinetic measurement in C57BL/6 mice, single subcutaneous dose, plasma ELISA; format: in vivo
Procedure: Each fusion protein conjugate was injected subcutaneously into C57BL/6 mice (n=3/group) once and plasma samples were collected at designed timepoints and analyzed by ELISA method. Plasma concentrations are indicated as mean values and standard error (SEM).
6-8 week old male C57BL/6 mice were administrated in a single subcutaneous dose of 30 nmol/kg of the exemplary fusion protein conjugates (Compounds 4, 9, 10, 19, 63) or the non-acylated fusion protein (i.e., Compound 3, which has the amino acid sequence identical to Compound 2 but without any conjugation) (n=3/group). Plasma samples were collected pre-dose (−5 min), 0.5 hr, 1 hr, 2 hr, 4 hr, 6 hr, 8 hr, 12 hr and 24 hr hours after the injection. For Compound 3, plasma collection timepoints were −5 min, 0.25 h, 0.5 h, 1 h, 2 h, 4 h and 6 h. The concentrations of the fusion protein conjugates or the non-acylated fusion protein in the plasma were measured by an ELISA assay which has immunoreactivities towards both C-terminal FGF21 and intact N-terminal of GLP-1. Based on the graph showing plasma concentration of each protein versus time after subcutaneous injection, the pharmacokinetic parameters were calculated by WinNonlin.
Pharmacokinetic data were analyzed by WinNonlin software. Tmax, Cmax, T1/2, AUC and MRT were calculated for each molecule.

[3] = single subcutaneous dose 30 nmol/kg, plasma

B1: Compound 71: GLP-1/FGF21 fusion polypeptide SEQ ID NO: 168 conjugated with Moiety B at 52C and 282C (conjugate)
chain: HGEGTFTSDVSSYLEEQAAKEFIAWLVKGGGGAQPGAQPGAQPGAQPGAQPCQAPGAQPGAQPGAQPGAQPGAQPGAQPGAQPGAQPGAQPGAQPGAQPGAQPGAQPGAQPHPIPDSSPLLQFGGQVRQRYLYTDDAQQTEAHLEIREDGTVGGAADQSPESLLQLKALKPGVIQILGVKTSRFLCQRPDGALYGSLHFDPEACSFRELLLEDGYNVYQSEAHGLPLHLPGQKSPHRDPAPRGPARFLPLPGLPPALPEPPGILAPQPPDVGSSDPLSLVGCSQGRSPSYES
modifications: Moiety B conjugated at C52 and C282
[1]
  Body weight reduction at 30 nmol/kg (% reduction compared to vehicle)(Day11): 24.5%

B2: Compound 72: GLP-1/FGF21 fusion polypeptide SEQ ID NO: 169 conjugated with Moiety B at 62C and 282C (conjugate)
chain: B1 chain with C52G, Q53A, A54Q, A61Q, Q62C
modifications: Moiety B conjugated at C62 and C282
[1]
  Body weight reduction at 30 nmol/kg (% reduction compared to vehicle)(Day11): 25.8%

B3: Compound 73: GLP-1/FGF21 fusion polypeptide SEQ ID NO: 170 conjugated with Moiety B at 42C and 282C (conjugate)
chain: B1 chain with A41Q, Q42C, C52G, Q53A, A54Q
modifications: Moiety B conjugated at C42 and C282
[1]
  Body weight reduction at 30 nmol/kg (% reduction compared to vehicle)(Day11): 20.2%

B4: Compound 48: GLP-1/FGF21 fusion polypeptide SEQ ID NO: 88 conjugated with Moiety A at 51K and 222K (conjugate)
chain: HGEGTFTSDVSSYLEEQAAREFIAWLVRGGGGAQPGAQPGAQPGAQPGAQKHPIPDSSPLLQFGGQVRQRYLYTDDAQQTEAHLEIREDGTVGGAADQSPESLLQLRALRPGVIQILGVRTSRFLCQRPDGALYGSLHFDPEACSFRELLLEDGYNVYQSEAHGLPLHLPGQRSPHRDPAPRGPARFLPLPGLPPALPEPPGILAPQPPDVGSSDPLSLVGKSQGRSPSYES
modifications: Moiety A conjugated at K51 and K222
[1]
  Body weight reduction at 30 nmol/kg (% reduction compared to vehicle)(Day11): 27.8%

B5: Compound 50: GLP-1/FGF21 fusion polypeptide SEQ ID NO: 117 conjugated with Moiety A at 51K and 233K (conjugate)
chain: HGEGTFTSDVSSYLEEQAAREFIAWLVRGGGGGGGSGGGGSGGGGSGGGGKHPIPDSSPLLQFGGQVRQRYLYTDDAQQTEAHLEIREDGTVGGAADQSPESLLQLRALRPGVIQILGVRTSRFLCQRPDGALYGSLHFDPEACSFRELLLEDGYNVYQSEAHGLPLHLPGQRSPHRDPAPRGPARFLPLPGLPPALPEPPGILAPQPPDVGSSDPLSLVGGSQGRSPSYESK
modifications: Moiety A conjugated at K51 and K233
[1]
  Body weight reduction at 30 nmol/kg (% reduction compared to vehicle)(Day11): 9.4%

B6: Compound 22: GLP-1/FGF21 fusion polypeptide SEQ ID NO: 22 conjugated with Moiety A at 51K and 231K (conjugate)
chain: HGEGTFTSDVSSYLEEQAAREFIAWLVRGGGGGGGSGGGGSGGGGSGGGGKHPIPDSSPLLQFGGQVRQRYLYTDDAQQTEAHLEIREDGTVGGAADQSPESLLQLRALRPGVIQILGVRTSRFLCQRPDGALYGSLHFDPEACSFRELLLEDGYNVYQSEAHGLPLHLPGQRSPHRDPAPRGPARFLPLPGLPPALPEPPGILAPQPPDVGSSDPLSLVGGSQGRSPSYK
modifications: Moiety A conjugated at K51 and K231
[1]
  Body weight reduction at 30 nmol/kg (% reduction compared to vehicle)(Day11): 32.9%

B7: Compound 66: GLP-1/FGF21 fusion polypeptide SEQ ID NO: 163 conjugated with Moiety B at 51C and 225C (conjugate)
chain: HGEGTFTSDVSSYLEEQAAKEFIAWLVKGGGGSAPGSPAGSPTGSAPGSPCHPIPDSSPLLQFGGQVRQRYLYTDDAQQTEAHLEIREDGTVGGAADQSPESLLQLKALKPGVIQILGVKTSRFLCQRPDGALYGSLHFDPEACSFRELLLEDGYNVYQSEAHGLPLHLPGQKSPHRDPAPRGPARFLPLPGLPPALPEPPGILAPQPPDVGSSDPLSLVGGSQCRSPSYES
modifications: Moiety B conjugated at C51 and C225
[1]
  Body weight reduction at 30 nmol/kg (% reduction compared to vehicle)(Day11): 18.9%

B8: Compound 4: GLP-1/FGF21 fusion polypeptide SEQ ID NO: 4 conjugated with Moiety A at 51K and 231K (conjugate)
chain: HGEGTFTSDVSSYLEEQAAREFIAWLVRGGGGGGGSGGGGSGGGGSGGGGKHPIPDSSPLLQFGGQVRQRYLYTDDAQQTEAHLEIREDGTVGGAADQSPESLLQLRALRPGVIQILGVRTSRFLCQRPDGALYGSLHFDPEACSFRELLLEDGYNVYQSEAHGLPLHLPGQRSPHRDPAPRGPARFLPLPGLPPALPEPPGILAPQPPDVGSSDPLSLVGGSQGRSPSYKS
modifications: Moiety A conjugated at K51 and K231
[2]; 30 nmol/kg subcutaneous
  AUC compared to non-acylated fusion protein (Compound 3): larger AUC
  Half-lives of double acylated compared to monoacylated Compounds 9 and 10: significantly prolonged half-lives
  PK properties compared to Semaglutide: better PK properties
[2]; [3]
  AUClast: 1.0196 µM·h
  Cmax: 58.3 nM
  Terminal t1/2: 19.7 h
  Tmax: 8 h
[1]; 30 nmol/kg, 10-day dosing period (FIGS. 1A-1B)
  BW reduction compared to Semaglutide: much more enhanced and persistent BW reduction
[1]
  Body weight reduction at 30 nmol/kg (% reduction compared to vehicle)(Day11): 27.0%

B9: Compound 51: GLP-1/FGF21 fusion polypeptide SEQ ID NO: 148 conjugated with Moiety B at 51C and 222C (conjugate)
chain: B8 chain with R20K, K51C, R107K, R110K, R120K, R173K, G222C, K231E
modifications: Moiety B conjugated at C51 and C222
[1]
  Body weight reduction at 30 nmol/kg (% reduction compared to vehicle)(Day11): 26.2%

B10: Compound 52: GLP-1/FGF21 fusion polypeptide SEQ ID NO: 149 conjugated with Moiety B at 51C and 225C (conjugate)
chain: B8 chain with R20K, K51C, R107K, R110K, R120K, R173K, G225C, K231E
modifications: Moiety B conjugated at C51 and C225
[1]
  Body weight reduction at 30 nmol/kg (% reduction compared to vehicle)(Day11): 20.9%

B11: Compound 15: GLP-1/FGF21 fusion polypeptide SEQ ID NO: 15 conjugated with Moiety A at 231K (conjugate)
chain: B8 chain with K51S, G222P
modifications: Moiety A conjugated at K231
[1]
  Body weight reduction at 30 nmol/kg (% reduction compared to vehicle)(Day11): 11.3%

B12: Compound 54: GLP-1/FGF21 fusion polypeptide SEQ ID NO: 151 conjugated with Moiety B at 51C and 231C (conjugate)
chain: B8 chain with R20K, K51C, R107K, R110K, R120K, R173K, K231C
modifications: Moiety B conjugated at C51 and C231
[1]
  Body weight reduction at 30 nmol/kg (% reduction compared to vehicle)(Day11): 13.5%

B13: Compound 20: GLP-1/FGF21 fusion polypeptide SEQ ID NO: 20 conjugated with Moiety A at 51K and 221K (conjugate)
chain: B8 chain with G221K, G222P, K231E
modifications: Moiety A conjugated at K51 and K221
[1]
  Body weight reduction at 30 nmol/kg (% reduction compared to vehicle)(Day11): 26.6%

B14: Compound 21: GLP-1/FGF21 fusion polypeptide SEQ ID NO: 21 conjugated with Moiety A at 51K and 225K (conjugate)
chain: B8 chain with G225K, K231E
modifications: Moiety A conjugated at K51 and K225
[1]
  Body weight reduction at 30 nmol/kg (% reduction compared to vehicle)(Day11): 34.4%

Reference: US11510990B2, “Conjugates of fusion proteins of GLP-1 and FGF21” (BEIJING QL BIOPHARMACEUTICAL CO., LTD., priority 2020, dated 2022)
